In paper PMC10899635 (2024):

B1: recombinant Q586B2 protein (natural protein)
chain: MPNLVVTATFSPPAFSIVGSPLREDTIKHMEERIPTVLSTALSRSREPSYFVHSKNPESWKMELSQHFCDELHRAAVSLVIIECLDAEGWVLRTSSSSQDTNEGKCCIKFYFTRS

Tests used:
[1] = target: B1

Binder | Kd [1] | Kd (Nb36) | Kd (Nb34)
Nb27 (VHH) VHH: QVQLQESGGGLVQPGGSLRLSCTTSRSILSIYAMGWYRQAPGKQRELVAVITSGGSTYYADSVKGRFTISRDNAKNTLYLQMNSLKPEDTALYYCARGGYGTSPQPSWGQGTQVTVSS | 52 nM | – | –
B1 | – | 11.3 nM | 36.7 nM
Nb39 (VHH) VHH: QVQLQESGGGLVQPGGSLRLSCTASGSIFSGYAMGWYRQAPGKQRELVAGITSGGSTIYAGSVKGRFTISRDNAKNTVYLQMNSLKPEDTAVYYCKNGTYYSARDYWGQGTQVTVSS | 49.9 nM | – | –
